Experimental data from publication doi:10.1101/2022.11.05.515292.

Key:
[1] = target: T1, Upstream Binding Transcription Factor (UBF), recombinant, P17480; assay: SDS-PAGE without sample heating, with densitometry; conditions: remark: other sources report otherwise
T1 chain: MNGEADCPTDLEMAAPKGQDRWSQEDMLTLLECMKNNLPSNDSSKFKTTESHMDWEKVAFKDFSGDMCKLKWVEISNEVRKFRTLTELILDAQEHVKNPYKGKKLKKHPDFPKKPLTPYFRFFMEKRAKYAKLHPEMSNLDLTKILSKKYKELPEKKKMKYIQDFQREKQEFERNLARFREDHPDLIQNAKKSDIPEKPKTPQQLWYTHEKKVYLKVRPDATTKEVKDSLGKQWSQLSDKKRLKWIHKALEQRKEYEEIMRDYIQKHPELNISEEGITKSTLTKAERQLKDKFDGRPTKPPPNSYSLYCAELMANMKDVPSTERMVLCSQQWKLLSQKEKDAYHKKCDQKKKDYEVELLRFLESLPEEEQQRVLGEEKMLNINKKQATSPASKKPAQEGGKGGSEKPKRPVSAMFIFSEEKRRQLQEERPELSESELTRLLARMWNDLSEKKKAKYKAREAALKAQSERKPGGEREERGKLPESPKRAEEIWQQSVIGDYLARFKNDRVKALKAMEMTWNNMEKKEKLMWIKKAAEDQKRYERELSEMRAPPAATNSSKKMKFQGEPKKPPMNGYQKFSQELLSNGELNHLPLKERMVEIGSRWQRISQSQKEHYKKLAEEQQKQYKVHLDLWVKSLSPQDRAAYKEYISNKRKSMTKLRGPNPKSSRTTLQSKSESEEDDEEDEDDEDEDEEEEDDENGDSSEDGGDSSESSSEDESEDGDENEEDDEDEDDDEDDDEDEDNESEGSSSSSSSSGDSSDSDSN

[2] = target: T1, Upstream Binding Transcription Factor …; assay: mass photometry; conditions: remark: other sources report otherwise

B1: Upstream Binding Transcription Factor (UBF), recombinant, P17480 1-764 (natural protein)
chain: T1 chain
stoichiometry N [1]: 4
stoichiometry N [2]: 4
